Assay results from publication PMC9320857, “Protocellular CRISPR/Cas‐Based Diffusive Communication Using Transcriptional RNA Signaling”.

Biological target: T7 RNA polymerase (UniProt P00573 1-883)
Experiment: confocal localization to immobilized DNA; 500 nM Cy5-T7 RNAP, 0.5 h, 37 C; target in proteinosomes; reaction buffer (composition not in the material; NEB buffer 3.1 mentioned), 37 C; DNA localization in 10 mM Tris pH 8.0, 12 mM Mg, 0.1% Tween 20
Conditions: protein: commercial; tags: Cy5 label; label: Cy3 5' on NTMG; biotin on TMG; NTMG 5' overhang 27 nt (incomplete T7 promoter)

Chain of T7 RNA polymerase (P00573 whole entry): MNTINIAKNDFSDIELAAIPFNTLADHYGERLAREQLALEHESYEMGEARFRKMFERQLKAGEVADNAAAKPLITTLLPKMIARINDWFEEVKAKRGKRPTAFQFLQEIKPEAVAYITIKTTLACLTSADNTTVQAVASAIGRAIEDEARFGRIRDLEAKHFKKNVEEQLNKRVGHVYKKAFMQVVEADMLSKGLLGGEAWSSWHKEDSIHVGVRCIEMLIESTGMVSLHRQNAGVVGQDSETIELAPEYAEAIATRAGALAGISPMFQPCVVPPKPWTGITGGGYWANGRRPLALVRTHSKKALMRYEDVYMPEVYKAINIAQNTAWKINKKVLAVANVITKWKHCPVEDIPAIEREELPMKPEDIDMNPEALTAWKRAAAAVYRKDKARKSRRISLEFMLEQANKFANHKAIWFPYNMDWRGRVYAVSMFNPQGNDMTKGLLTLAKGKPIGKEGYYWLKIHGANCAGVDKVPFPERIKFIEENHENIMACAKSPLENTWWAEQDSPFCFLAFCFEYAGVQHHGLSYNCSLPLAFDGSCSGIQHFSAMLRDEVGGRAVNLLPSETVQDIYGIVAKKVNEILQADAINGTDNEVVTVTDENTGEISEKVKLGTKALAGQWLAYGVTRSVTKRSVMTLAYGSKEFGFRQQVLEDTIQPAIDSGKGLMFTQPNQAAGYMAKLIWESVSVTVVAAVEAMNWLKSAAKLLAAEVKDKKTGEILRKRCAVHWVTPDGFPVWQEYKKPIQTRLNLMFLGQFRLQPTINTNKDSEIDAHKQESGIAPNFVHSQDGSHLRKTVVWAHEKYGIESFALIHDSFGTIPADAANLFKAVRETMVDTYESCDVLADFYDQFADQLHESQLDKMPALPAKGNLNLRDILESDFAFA

B1: MG genelet TMG/NTMG (dsDNA)
DNA 1: CATTAGTGTCGTTCGTTCACAGTAATACGACTCACTATAGGGATCCCGACTGGCGAGAGCCAGGTAACGAATGGATC
DNA 2: GATCCATTCGTTACCTGGCTCTCGCCAGTCGGGATCCCTATAGTGAGTCG
B1: binds.
